Results published in patent publication US12643954B2, “Anti-CD36 antibodies and their use to treat cancer” (ONA Therapeutics, S.L., priority 2020, dated 2026).
Read-outs that look alike come from different tables or passages of the source.

Experiments:
OVCAR-3 cells = assay: OVCAR-3 orthotopic mouse model of ovarian cancer (Example 9); assay type: in vivo
Description: Studies of the effects of the ONA-0-v1 and 1G04 anti-CD36 antibodies on ovarian cancer were performed in NSG mice (immuno-deficient). The studies included only female mice. All mice were inoculated with commercially available OVCAR-3 (ATCC) cancer cells. OVCAR-3 cells were derived from a human progressive adenocarcinoma of the ovary (i.e., from an ovarian cancer). For each mouse, a piece of an OVCAR-3 xenograft was implanted orthotopically. Prior to inoculation, the OVCAR-3 cells were cultured in a humidified incubator at 37° C. with 5% CO2, and were grown in RPMI-1640 supplemented with 5 μg ml^−1 penicillin/streptomycin, 0.01 mg/ml bovine insulin and 20% FBS (GIBCO).
Treatment of the implanted mice began 7 days after implantation with the OVCAR-3 tumor pieces. Inoculated mice were divided into one of three treatment groups: vehicle injection control (n=9), ONA-0-v1 treatment (n=9), or 1G04 treatment (n=9). ONA-0-v1 antibody treatments were administered via intraperitoneal (i.p.) injection daily at a dose of 3 mg/kg. 1G04 antibody treatments were administered via i.p. injection TIW (three-times weekly) at a dose of 10 mg/kg. Control mice received an equal volume of vehicle daily. […] Mice were sacrificed at the end of the treatment period. Upon sacrifice, organs and tissues were collected for performance of necropsy and histopathology analysis.

HCT-116 cells = assay: HCT-116 orthotopic mouse model of colon cancer (Example 8); assay type: in vivo
Description: Studies of the effects of the ONA-0-v1 anti-CD36 antibody on colon cancer were performed in BALB/c nude mice (immuno-deficient). The studies included only female mice. All mice were inoculated with commercially available HCT-116 (ATCC) cancer cells, transduced with a retroviral vector expressing luciferase. HCT-116 cells were derived from a human colorectal carcinoma (i.e., from a colon cancer). Prior to inoculation, the HCT-116 cells were cultured in a humidified incubator at 37° C. with 5% CO2, and were grown in McCoy's 5A medium supplemented with 5 μg ml^−1 penicillin/streptomycin and 10% FBS (GIBCO).
For each mouse, 2×10^6 HCT-116 cells were inoculated via orthotopic injection. Each mouse was imaged after inoculation and one week later and liver metastasis were confirmed by ex vivo luminescence prior to start of treatment. Treatment began 14 days after inoculation with the HCT-116 cells. Inoculated mice were divided into one of two treatment groups: vehicle injection control (n=10) or ONA-0-v1 treatment (n=10). Antibody treatments were administered via intraperitoneal (i.p.) injection daily at a dose of 3 mg/kg, while control mice received an equal volume of vehicle on the same schedule. At 7, 14, and 21 days after start of treatment, all mice were imaged via IVIS. Mice were sacrificed at the end of the treatment period (day 25). Upon sacrifice, organs and tissues were collected for performance of necropsy, ex-vivo IVIS, and histopathology.

CD36 [1] = biological target: T1, CD36 (Homo sapiens, UniProt P16671); assay: ELISA binding to plate-coated human CD36; parameters: purchased Sino Biological 10752-H08H; details: recombinant human CD36 coated plates
Description: To perform ELISA assays, 96-well ELISA plates were coated over night with human CD36 (Sino Biological, reference 10752-H08H) or mouse CD36 (Sino Biological, reference 50422-M08H) recombinant proteins at a concentration of 0.25 mg/ml. After two washes with PBS, plates were blocked with 4% skimmed milk in PBS for 1 hour at 37° C. Blocking solution was discarded and plates were washed five times with 200 μl/well PBS-Tween20 (0.5%). Primary antibodies were either omitted (control blocking solution treatment) or mixed in blocking solution at several dilutions ranging from 0.01 nM to 0.5 μM. The primary antibody solutions were added to the wells and incubated over night at 4° C. After 5 washes with 200 ul/well of PBS-Tween20 (0.5%), plates were incubated for 1 hour at room temperature with a goat anti-mouse HRP-conjugated antibody (Abeam, reference ab97235) diluted 1:2000 in blocking solution. Plates were then washed 5 times with 200 μl/well of PBS-Tween20 (0.5%), incubated with 100 μl/well TMB and detected after 10 minutes, 30 minutes, or 60 minutes with a spectrophotometer at a wave length of 630 nm.
Target sequence in this assay (P16671 30-439 limits assumed): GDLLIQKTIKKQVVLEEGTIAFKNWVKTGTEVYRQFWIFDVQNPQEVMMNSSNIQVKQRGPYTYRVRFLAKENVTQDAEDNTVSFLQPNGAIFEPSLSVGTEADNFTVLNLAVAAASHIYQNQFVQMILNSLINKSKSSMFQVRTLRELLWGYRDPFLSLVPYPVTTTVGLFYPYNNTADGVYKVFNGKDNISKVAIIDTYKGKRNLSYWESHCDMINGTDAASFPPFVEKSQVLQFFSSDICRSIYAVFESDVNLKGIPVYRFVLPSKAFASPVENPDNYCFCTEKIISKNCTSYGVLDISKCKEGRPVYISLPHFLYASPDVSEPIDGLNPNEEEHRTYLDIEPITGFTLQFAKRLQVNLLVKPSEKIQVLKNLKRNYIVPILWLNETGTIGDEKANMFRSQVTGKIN

CD36 [2] = biological target: T1, CD36; assay: Surface plasmon resonance (Biacore T200) affinity for human CD36; assay type: binding; details: SPR
Description: The affinity of ONA-0-v1, 1G04, and a commercial anti-CD36 antibody (JC63.1) for human CD36 was also measured by surface plasmon resonance (SPR) using a Biacore T200. 1G04 was analysed using a protein A capture surface, with a capture range of 100-150 RU and an antigen titration range of 3.3-333 nM. The mouse antibodies ONA-0-V1 and the commercial anti-CD36 antibody were analysed using an anti-mouse IgA capture surface, with a capture range of 160-180 RU and an antigen titration range of 3.3-333 nM. For each single analysis cycle a titration of five antigen concentrations were injected over the captured antibody and then the dissociation of the complex was measured. A double referencing method was employed in which data from the reference surfaces where no antibody was captured (fc 1 and 3 respectively) were subtracted from the antibody bound capture surface (fc 2 and 4). Blank injections of buffer were run for every antigen titration cycle and then subtracted from analyte injection cycles, to correct for small changes in the antibody capture surface density. All analysis was performed at 25° C., and the sample rack was kept at 6° C. during experimental runs. Each experiment was run at least three times with the mean binding constants generated from at least two independent assays reported. All analysis was performed in PBS-T running buffer at 40 μL/min.
Target sequence in this assay (P16671 whole entry): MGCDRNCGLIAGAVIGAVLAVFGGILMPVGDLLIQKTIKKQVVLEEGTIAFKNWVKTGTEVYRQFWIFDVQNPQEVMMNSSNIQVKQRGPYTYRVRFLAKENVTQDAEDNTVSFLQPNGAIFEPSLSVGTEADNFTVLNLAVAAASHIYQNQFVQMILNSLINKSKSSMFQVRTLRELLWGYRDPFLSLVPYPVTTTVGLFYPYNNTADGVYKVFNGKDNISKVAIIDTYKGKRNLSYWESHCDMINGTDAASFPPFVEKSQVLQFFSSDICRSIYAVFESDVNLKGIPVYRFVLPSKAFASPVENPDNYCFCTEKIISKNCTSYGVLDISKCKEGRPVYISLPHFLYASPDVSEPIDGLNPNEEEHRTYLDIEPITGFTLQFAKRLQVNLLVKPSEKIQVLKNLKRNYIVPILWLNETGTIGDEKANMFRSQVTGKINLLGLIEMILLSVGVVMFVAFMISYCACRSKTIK

B1: ONA-0-v1: murine IgA anti-CD36 antibody; heavy chain SEQ ID NO: 5, light chain SEQ ID NO: 7 (antibody)
heavy: QVQLKQSGADLVRPGASVKLSCKASGYTFTDYYINWVKQRPGQGLEWIARIYPGSGNTYYNEKFKGKATLTAEKSSSTAYMQLSSLTSEDSAVYFCARGIGGGFGMDYWGQGTSVTVSSESARNPTIYPLTLPPVLCSDPVIIGCLIHDYFPFGTMNVTWGKSGKDITTVNFPPALASGGRYTMSSQLTLPAVECPEGESVKCSVQHDSNPVQELDVNCSPTPPPPITIPSCQPSLSLQRPALEDLLLGSDASITCTLNGLRNPEGAAFTWEPSTGKDAVQKKAAQNSCGCYSVSSVLPGCAERWNSGASFKCTVTHPESGTLTGTIAKVTVNTFPPQVHLLPPPSEELALNELLSLTCLVRAFNPKEVLVRWLHGNEELSPESYLVFEPLKEPGEGATTYLVTSVLRVSAETWKQGDQYSCMVGHEALPMNFTQKTIDRLSGKPTNVSVSVIMSEGDGICY
light: SIVMTQTPKFLLVSAGDRITITCKASQSVSDDVAWYQQKPGQSPKLLIYYASNRYTGVPDRFTGSGYGTDFTFTISTVQAEDLAVYFCQQDYSSPLTFGAGTKLEIKRADAAPTVSIFPPSSEQLTSGGASVVCFLNNFYPKDINVKWKIDGSERQNGVLNSWTDQDSKDSTYSMSSTLTLTKDEYERHNSYTCEATHKTSTSPIVKSFNRNEC
modifications: ONA-0-v1 heavy chain; ONA-0-v1 light chain
decrease in total number of metastases relative to vehicle (OVCAR-3 cells; ONA-0-v1 3 mg/kg i.p. daily, 1G04 10 mg/kg i.p. TIW): approximately 45%
mice free of metastasis in the liver (OVCAR-3 cells; macroscopic analysis): 78%
mice having 1-2 mm metastasis in the liver (OVCAR-3 cells; macroscopic analysis): 17%
mice having 1-2 mm metastasis in the peritoneal wall (OVCAR-3 cells; macroscopic analysis): 19%
mice having 2-5 mm metastasis in the liver (OVCAR-3 cells; macroscopic analysis): 6%
mice having 2-5 mm metastasis in the peritoneal wall (OVCAR-3 cells; macroscopic analysis): 19%
mice having <1 mm metastasis in the liver (OVCAR-3 cells; macroscopic analysis): none
mice having >5 mm metastasis in the peritoneal wall (OVCAR-3 cells; macroscopic analysis): 19%
mice metastasis-free in the peritoneal wall (OVCAR-3 cells; macroscopic analysis): 44%
animals free of metastases in the lung (OVCAR-3 cells; microscopic analysis): 44%
mean metastasis number in the lungs per mouse (OVCAR-3 cells; microscopic analysis): 1.6
weight of mice throughout the treatment period (OVCAR-3 cells; mouse, in vivo): remained the same
total number of metastases counted (OVCAR-3 cells; visual inspection of organs, sum per group): 29
in vivo total tumor bioluminescence over time (HCT-116 cells; 3 mg/kg i.p. daily, day 21): reduced the growth of the tumor
ex vivo luminescence, kidney (HCT-116 cells; IVIS at sacrifice): 1.08*10^6
ex vivo luminescence, liver (HCT-116 cells; IVIS at sacrifice): 9.02*10^7
ex vivo luminescence, lung (HCT-116 cells; IVIS at sacrifice): 1.24*10^6
ex vivo luminescence, spleen (HCT-116 cells; IVIS at sacrifice): 1.79*10^8
body weight as percent of starting body weight (HCT-116 cells; day 18): 91.1%
ex vivo primary tumor bioluminescence, average radiance (HCT-116 cells; day 25): 1.51*10^10
percentage of mice with tumors in their liver (HCT-116 cells; ex vivo luminescence): 60%
percentage of mice with tumors in their lungs (HCT-116 cells; ex vivo luminescence): 60%
binding to human CD36 in ELISA (CD36 [1]): able to specifically bind
ka (CD36 [2]; 1-to-1 model, 25° C.): 632000 M⁻¹ s⁻¹
kd (CD36 [2]; 1-to-1 model, 25° C.): 0.00354 s⁻¹
ka1 (CD36 [2]; 2-state model): 108000 M⁻¹ s⁻¹
ka2 (CD36 [2]; 2-state model): 0.000558 s⁻¹
kd1 (CD36 [2]; 2-state model): 0.0023 s⁻¹
kd2 (CD36 [2]; 2-state model): 0.000393 s⁻¹
ka2 (CD36 [2]; bivalent model): 6.74E−05 1/RUs
kd1 (CD36 [2]; bivalent model): 0.00259 s⁻¹
kd2 (CD36 [2]; bivalent model): 0.000527 s⁻¹
ka1 (CD36 [2]; bivalent model, first ka1 column): 33400 M⁻¹ s⁻¹
Kd (CD36 [2]; bivalent model, read-out: KD1): 0.0773 µM
Kd (CD36 [2]; bivalent model, read-out: KD2): 0.986 µM
